# Data: the nanobody polyreactivity screen of Harvey et al. (2022)
# Assay: yeast display, Sf9 membrane polyspecificity reagent, FACS + sequencing; frameworks hold sequencing errors
# Outline: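 Using colony PCR, genes from sorted yeast display clones were amplified, then sequenced on MiSeq at 2 × 250 and filtered by CDR length. The clones had been stained with 10% biotinylated, detergent-solubilized Sf9 membrane reagent for 1 hour at 4 °C and sorted by FACS into low and high (top ~1%) gates on anti-HA and streptavidin fluorescence. Polyreactivity labels come from the gate of origin.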
sequence,measurement,value
QVQLVESGGGLVQAGGSLRLSCAASGIIFDCNAMGCYRQAPGKERELVAANTSSTDSTYYADSVKGRFTISRDNAKNTVYLQMNILKPEDTAVYYCAAAYPSKTFDYWGQGTHVTVSS,polyreactivity (PSR sort gate),low polyreactivity
QVQLVESGGGLVQAGGSLRLSCAASGSTSDINAMGWYRQAPGKERELVAVITFSGGSTNYADSVKGRFTISRDNAKNTVYLQMNSLKPEDTAVYYCNADTLTTTRRFNPYDYWGQGTQVTVSS,polyreactivity (PSR sort gate),low polyreactivity
QVQLVESGGGLVQAGGSLRLSCAASGSTFFFNAMGWYRQAPGKERELVAAITGRSGSTYYADSVKGRFTISRDNAKNTVYIQMNSLKPEDTAVYYCAADYVFVATPLRYDYWGQGTQVTVSS,polyreactivity (PSR sort gate),low polyreactivity
QVQLVESGGGLDQAGGSLRLSCAASGFTFYSYVMGWYRQAPGKERELVAAITRGGSTYYADSVKGRFTISRDNAKNTVYLQMNSMKPDDTAVYYCAKRPSYGFNYWGQGTQVTVSS,polyreactivity (PSR sort gate),low polyreactivity
QFQLVESGGGLVQAGGRLRLSCAASGSIFYRNAMGWYRQAPGKERELVAAISASGGSTYYADSVKGRFTISRDNEKNTVYLQMIILKPEDTAVYYCDVEYRKSRSYAPMGYWGQGTQVTVSS,polyreactivity (PSR sort gate),high polyreactivity
QVQLVESGGGLVQAGGSLRLSCAASGSIFWRNAMGWYRQAPGKERALVAAISGNGGTTYYADSVKGRFTISRDYAKNTVYLQINSLKPEDTAVYYCAKVGKTYRTYEDWGQGTQVTVSS,polyreactivity (PSR sort gate),high polyreactivity
QVQLVESGGGLVQAVGSLRLSCAASGITFRWYTMGWYRQAPGKERELVASIRYGGGSTYYADSVKGRFTISRDNAKNTVYLQMNSLKPEDTAVYYCDAESAWTSPYDYWGQGTQVTVSS,polyreactivity (PSR sort gate),high polyreactivity
QVQLVESGGGLVQAGGSLRLSCAASGFTFYYNAMGWYRQAPGKERELVAGISGRGGTTYYADSVKGRFTISRDNAKNTVYLQMNSLKPEDTAVYYCAARKVRARSKFEYWGQGTQVTVSS,polyreactivity (PSR sort gate),high polyreactivity
QVQLVESGGGLVQAGGSLRLSCAASGRTFSKNAMGWYRQAPGKERELVADISRRGGRTYYADSVNGRFTISRDNAKNTVYLQMNSLKPEDTAVYYSAARRRGSVGVGYAYPYNYWGQGTQVTVSS,polyreactivity (PSR sort gate),high polyreactivity
QVQLVESGGGLVQAGGSLRLSCAASGRTFLVNAMGWSRQAPGKERELVAAISQRGGSTDYADSVKGRFTISRDNAKNTVYLQMNSLKPEDTAVYYCAVRWGYLYDYWGQGTQVTVSS,polyreactivity (PSR sort gate),low polyreactivity
QVQLVESGGGLVQAGGSLRLSCAASGITFGTNAMGWYRQAPGKERELVAAITSGVSTYYADSVKGRFTISRDNAKNTVYLQMNSLIPEDTAVYYCAKDVAVYADLYQGDPYGYWGQGTLVTVSS,polyreactivity (PSR sort gate),low polyreactivity
QVQLVESGGGLVQAGGSLRLSCAASGITFAYYVMGWYRQAPGKERELVAAISRSGSTYYADSVKGRFTISRDNAKNTVYLQMNSLKPEDTAVYYCAVLYIRWYTYEYWGQGTQVTVSS,polyreactivity (PSR sort gate),high polyreactivity
QVQLVESGGGLVQAGGSLRLSCADSGRTFRFNTRGWYRQAPGKEWVLVASISSSGGRTYYADSVKGRFTISRDNAKNTLYLQMHSLKPEDTAVYYCAAAAGWGARTSTYCGYDYWGQGTQVTVST,polyreactivity (PSR sort gate),high polyreactivity
QVQLVESGGGLVQAGGSLRLSCAASGIIFGTYVMGWYRQAPGKERELVAAINRSGGNTYYADSVKGRFTISRDNEKNTVYLQMNSLKPEDTAVYYCAAEEAYRSRRGGFDYWGQGTQVTVSS,polyreactivity (PSR sort gate),high polyreactivity
QVQLVESGGGLVQAGGSLRLSCAASGRIFPHYAMGWYRQAPGKERELVAAISSGGRTNYADSVKGRFTISRDNAKNTVYLQMNSLKPEDTAVYYCARRYPGGYYWGQGTQVTVSS,polyreactivity (PSR sort gate),high polyreactivity
QVQLVESGGGLVQAGGSHRLSCAASGIIFYRNAMGWYRQAPGKEREFVAAISSSGTNTYYADSVKGRFTISRDNAKITVYLQMNSLKPEDTAVYYCNADPDDGYFSDFDYWGQGTQVTVSS,polyreactivity (PSR sort gate),low polyreactivity
QVQLVESGGGLVQAGGSLRLSCSASGRIFPRYAMGWYIQEPGKEMELFATISSGGSTYYADSVKGRFTITRDNAKNTVYLQMNSLKPEDTADYYCADRKGQYTVINGMDYWGQGTQVTVSS,polyreactivity (PSR sort gate),low polyreactivity
QVQLVESGGGLVQAGGSLRLSCAASGSTFRIYAMGWYRQAPGKERELVATITSGSSTYADSVKGRFTISRDNAKNTVYLQMNSLKPEDTAVYYCAARRKGGHISYGYDYWGQGTQVTVSS,polyreactivity (PSR sort gate),high polyreactivity
QVQLVESGGGLVEAGGSLRLSCAASGSIFDDYAMGWYRQAPGEERELVAAITWNGGSTYADSVKGRFTISRDNAKNTVYFQMNSLKPEDTAVYYSAADYFVYWYYGYGYWGQGTQVTVSS,polyreactivity (PSR sort gate),low polyreactivity
QVQLVESGGGLVQAGGSLRLSCAASGFIFNRNAMGWYRQAPGKERELVAAITWSASRTYYADSVKGRFTISRDNAKNTVYLQMNSLKPEDTAVSYCAARRYRGYDYWGQGTQVTVSS,polyreactivity (PSR sort gate),high polyreactivity
QVQLVESVGCLVQAGGSLRLSCAASGRTVVYGYAMGWYRQDPGKERELVAAITSGGSTNYADSVKGRFTISRDNAKNTVYLQMNSLNPEDSAVYYCNAGTVLISTYDYWGQGTQVTVSS,polyreactivity (PSR sort gate),high polyreactivity
QVQLQEGGGGLVQAGGSLRLSCAASGYISYGDDMGWYRQAPGEERELVASIGLDATTNYADSVKGRFTISRDNAKITVYLQMNSLKPEDTAVYYCAADVGSGVLCGYWGQGTQMTVSS,polyreactivity (PSR sort gate),high polyreactivity
QVQLVESGGGLVQSGGSLRLSCAASGRIFDYNAMGWYRQAPGKERELVAAINSGGSTYADSVKGRFTISRDNAKNTVYLQMNSLKPEDTAVYYCNATPQFATFTYDYCGQGTQVTVSS,polyreactivity (PSR sort gate),low polyreactivity
QVQLVESGGGLVQAGGSLRLSCAASGSTFVGNAMGWSRQAPGKERELVAAITSGGSTNYADSVKGRFTISRDNAKNTVYLQMNSLKPEDTAVYYCAKRVSGSPPTGGSLSDSWGQGTQVTVSS,polyreactivity (PSR sort gate),high polyreactivity
QVQLVESGGGLVQAGGSLRLSCAASGLILSSNAMGWYRQAPGKERELVAAITWDGDRTYADSVKGRFTISRDNAKNTVYLQMNSLKPEDTAVYYCAADKQYYWYDWSYVYWGQGTQVTVSS,polyreactivity (PSR sort gate),low polyreactivity
QVQLVESGGGLVQAGGSLRLSCAASGYIFRAYAMGWYRQAPGKERELVAAITKRSGTTYYADSVKGRFTISRDNAKNTVYLQMNSLKPEDTAVYYCAAKTLYNSGTQDRAMGYWGQGTQVTVSS,polyreactivity (PSR sort gate),high polyreactivity
QVQLVESGGGLVQAGGSLRLSCAASGRTFYKNAMGWYRQAPGKERELVARISRGGSTNYADSVKGRFTISRDNAKNTVYLQMNSLKPEDTAVYYCAKEYGTHGKTYDYWGQGTQVTVSS,polyreactivity (PSR sort gate),high polyreactivity
QVQLVESGGGLVQAGGSLRLSSAASGGTFGGYTRRWSRQAPGKERELVAAITRRGSSTFYADSVKGRFTISRDNAKKTVYLQMNSLKPEDTAVYYCAARYIVYLRTQSERYNSYDYWAQGTQVTVSS,polyreactivity (PSR sort gate),high polyreactivity
QVQLVESGGGLVQAGGSLRLSCAASGRIFWWYAMGWYRQAPGKERELVAAISTGSRTYYADSVKGRFTISRDNAKNTVYLQMNSLKPEDTAVYYCNKDYWYGYSDFDYWGQGTQVTVSS,polyreactivity (PSR sort gate),low polyreactivity
QVQLVESGGGLVEAGGSLRLSCAASGRIFWGNAMGWYRPAPGKERELVAAITRGGSTNYADSVKGRFTISRDNAKNTVYLQMKSLKPEDTAVYYCAARTRSRGNSWTYDYWGQGTQVTVSS,polyreactivity (PSR sort gate),high polyreactivity
QVQIVESGGGLVQAGGSLRLSCAASGRILVPYTMGWYRQAPGKERELVAAITIGGRTTYADSVKGRFTISRDNAKNTVYLQMNSLKPEDTAVYYCAKRDWRYEWYGYDYWGQGTQVTVSS,polyreactivity (PSR sort gate),low polyreactivity
QLQLEESGGGLVQAGGSLRLSCAASGRIFNYYAMGWYRPAPGKEKELVAAISTVCGSTYYADSVKGRFTISRDKAKNTVYIQMHSLKPEDTSVYYCAAYQYYDFSYSYDYWGQGTQVTVSS,polyreactivity (PSR sort gate),low polyreactivity
QVQLVESGGGLVQAGGSLCLSGAASGITFRFYAMGWYRQAPGKERELVAAISWSGGRTYYADSVKWRFTISRDNAKNTVYLQMNSLKPEDTAVYYCAAVASSVPGYDYWGQGTQVTVSS,polyreactivity (PSR sort gate),low polyreactivity
QVQLVESGGGLVQAGGILSLSCAASGRIFVYYMGWYRQAPGKESELVAAISFGGGSTYYADSVKGRFTISRDNAKNTVYLQMNSLKPEDTAVYYCNADGDDLDWNYYLVQYDSWGQGTQVTVSS,polyreactivity (PSR sort gate),low polyreactivity
QVQLVESGGGLVQAGGSLRLSCAASGRTFYPYAMGWYRQAPGTERELVAAISRSGGGTYYADSVKGRFTISRDNAKNTVYLQMNSLKPEDTAVYYCAAARYLSIYNYWGQGTQVTVSS,polyreactivity (PSR sort gate),low polyreactivity
QVQIVESVGGLLQAGGSLRLSCAASGRIFQGYAMGWYRQAPGKERELVASISSCGRTYYADSVKGRFTISRDNAKNTVYLQFNSLTPEDTAVYYCAKRPQFFWSNPYDYWGLGTQVTVSS,polyreactivity (PSR sort gate),high polyreactivity
QVQLVESGGGLVQAGGSLRLSCAASGRTLYLNAMGWYRQAPGKERELVASISRGGGSTYYADSVKGRFTISRDNAKYTVYLQMNSLKPEDTAVYYCAATGAGDYDYWGQGTQVTVSS,polyreactivity (PSR sort gate),low polyreactivity
QVQLQESGGGQVQAGGSLRLSCAPSGYISSWYPKGWYRQAPGKEPEFVATIAPGATNYYADSVKGRFTISRDYAKNTVYQQMNSLKPEDTAVYYCAVVSNGRRERYYYWGQGTQVTVSS,polyreactivity (PSR sort gate),low polyreactivity
QVQLVESGGGLVQAGGSLRLSCAASGRIFYYNAMGWYRQAPGKERELVARISSGGSTNYADSVKGRFTISRDNAKNTVYLQMNSLKPEDTAVYYCAVAKGGLAWGVGRAGRYDFWGQGTQVTVSS,polyreactivity (PSR sort gate),low polyreactivity
QVQLVESGRRLVQAGGSLRLSCAASGLTLYKNGMGWYRKAPGQVRELVAVISRSGGRTYYADSVKGRFTISRDNAKNTVYVQMNSLKPEDTAVYYCAARQYGPRYTYYYWGQGTQVTVSS,polyreactivity (PSR sort gate),high polyreactivity
QVQLVESGGGLVQAGGSLRLSCAASGSTFRYYAMGWYRQAPGKERELVAAISGSGGRTYYADSVKGRFTISRDNAKNTVYLQMNSLKPEDTAVYYCAASRYQFYWGQGTQVTVSS,polyreactivity (PSR sort gate),high polyreactivity
QVQLVESGAGLVQAGGSLRLSCAASGSIFVYNDMGWYRQAPGKERELVAAITSSGGSTYYADSVKGRFTISRDNAKKTVYLQMNSLKPEDTAVYYCNVWDRPPTGYDYWGQGTQVTVSS,polyreactivity (PSR sort gate),low polyreactivity
QVQLVESGGGLVQAGGSLRLSCAASGRTFVKYAMGWYRQAPGKERELVAAISSRGSSTYYADSVKGRFTISRDNAKNTVYLQMNSLKPEETAVYYCNAVYYYNPGYDYWGQGTQVTVSS,polyreactivity (PSR sort gate),high polyreactivity
